T1: FAS-IC (Homo sapiens, UniProt P25445)
T1 construct: the FAS-IC extends-from amino acid residues 175-319 of the intact FAS-R; expressed in transfected cells; host or cells: SFY526 yeast
T1 sequence (P25445 191-335): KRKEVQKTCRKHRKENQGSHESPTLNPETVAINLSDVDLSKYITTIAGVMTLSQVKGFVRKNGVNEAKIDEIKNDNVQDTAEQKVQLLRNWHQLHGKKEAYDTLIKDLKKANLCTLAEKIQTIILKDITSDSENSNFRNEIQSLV

T2: FAS-IC with replacement mutations at position 225 (Ile) (Mus musculus, UniProt P25446, I246A)
T2 construct: four constructs of the mouse Fas-IC including two full-length constructs; expressed in transfected cells; host or cells: SFY526 yeast
T2 sequence (P25446 187-327 I246A): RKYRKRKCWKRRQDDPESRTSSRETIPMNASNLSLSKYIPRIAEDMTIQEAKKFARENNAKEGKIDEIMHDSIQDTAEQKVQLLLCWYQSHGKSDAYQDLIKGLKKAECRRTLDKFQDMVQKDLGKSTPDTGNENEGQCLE

B1: MORT-1: Mediator of Receptor-induced Toxicity; protein binding the intracellular domain of FAS-R, SEQ ID NO:2 (protein)
chain: VNQAPECRFGGGILGPLGKRRDLARASEPRTEGARRAGPQPRPLADPAMDPFLVLLHSVSSSLSSSELTELKFLCLGRVVKRKLERVQSGLDLFSMLLEQNDLEPGHTELLRELLASLRRHDLLRRVDDFEAGAAAGAAPGEEDLCAAFNVICDNVGKDWRRLARQLKVSDTKIDSIEDRYPRNLTERVRESLRIWKNTEKENATVAHLVGALRSCQMNLVADLVQEVQQARDLQNRSGAMSPMSWNSDASTSEAS
B2: MACHα1 (C360S): MACHα1 mutant in which the catalytic cysteine Cys360 is replaced by Ser (protein)
chain: MDFSRNLYDIGEQLDSEDLASLKFLSLDYIPQRKQEPIKDALMLFQRLQEKRMLEESNLSFLKELLFRINRLDLLITYLNTRKEEMERELQTPGRAQISAYRVMLYQISEEVSRSELRSFKFLLQEEISKCKLDDDMNLLDIFIEMEKRVILGEGKLDILKRVCAQINKSLLKIINDYEEFSKERSSSLEGSPDEFSNGEELCGVMTISDSPREQDSESQTLDKVYQMKSKPRGYCLIINNHNFAKAREKVPKLHSIRDRNGTHLDAGALTTTFEELHFEIKPHDDCTVEQIYEILKIYQLMDHSNMDCFICCILSHGDKGIIYGTDGQEAPIYELTSQFTGLKCPSLAGKPKVFFIQASQGDNYQKGIPVETDSEEQPYLEMDLSSPQTRYIPDEADFLLGMATVNNCVSYRNPAEGTWYIQSLCQSLRERCPRGDDILTILTEVNYEVSNKDDKKNMGKQMPQPTFTLRKKLVFPSD

How the values were obtained:
[1] = biological target: T1, FAS-IC; test: Two-hybrid test of MORT-1 binding (FIG. 1), human Fas-IC; conditions: transfected SFY526 yeasts
Text: (§1) To isolate proteins interacting with the intracellular domain of the FAS-R, the yeast two-hybrid system was used (Fields and Song, 1989). […] In this system, the genes for the candidate interacting proteins are cloned into separate expression vectors. In one expression vector, the sequence of the one candidate protein is cloned in phase with the sequence of the GAL4 DNA-binding domain to generate a hybrid protein with the GAL4 DNA-binding-domain, and in the other vector, the sequence of the second candidate protein is cloned in phase with the sequence of the GAL4 activation domain to generate a hybrid protein with the GAL4-activation domain. The two hybrid vectors are then co-transformed into a yeast host strain having a lacZ or HIS3 reporter gene under the control of upstream GAL4 binding sites. Only those transformed host cells (cotransformants) in which the two hybrid proteins are expressed and are capable of interacting with each other, will be capable of expressing the reporter gene. In the case of the lacZ reporter gene, host cells expressing this gene will become blue in color when X-gal is added to the cultures. […]
(§2) In FIG. 1, there is depicted the interaction of the proteins encoded by the Gal4 DNA binding domain and activation-domain constructs (pGBT9 and pGAD-GH) within transfected SFY526 yeasts as assessed by β-galactosidase expression filter assay. […]

[2] = biological target: T2, FAS-IC with replacement mutations at position 225 (Ile); test: Two-hybrid test of MORT-1 binding (FIG. 1), FAS-IC mutated at position 225; conditions: lpr^eg mutation site
Text: as §1, §2

[3] = system: p55-R-induced cytotoxicity in 293-EBNA cells; test: Death of 293-EBNA cells induced by over-expression of p55-R; type: cell-based, human; conditions: co-transfection
Experimental: In brief, 293-EBNA cells, MCF7 human breast carcinoma cells and HeLa HtTA-1 cells were grown in Dulbecco's modified Eagle's minimal essential medium supplemented with 10% fetal calf serum, nonessential amino acids, 100 U/ml penicillin and 100 μg/ml streptomycin. Cell tissue culture dishes (5×10^5 293-EBNA cells, 3×10^5 s MCF7 cells or 3×10^5 HeLa cells in 6-cm dishes) were transiently transfected, using the calcium phosphate precipitation method, with the cDNAs of the indicated proteins together with the β-galactosidase expression vector. In the experiments presented in FIGS. 14A-D and 15, each dish was transfected with 3.5 μg of the indicated MACH construct and 1.5 μg of pSV-β-gal. In the experiments presented in FIGS. 16A-D and 17-19, each dish was transfected with 2.5 μg of the indicated MACH or MORT1 construct (or, as control, empty vector) and 1.5 μg of pSV-β-gal. The cells were rinsed 6 to 10 h after transfection. The 293-EBNA and MCF7 cells were incubated for a further 18 h without additional treatment. […] The extent of cell death at the end of the incubation periods was assessed by determination of β-galactosidase expression, as described by Kumar et al, 1994. […]
In particular, FIGS. 16A-D show morphology of 293-EBNA cells in which cell death was induced by transient expression of a chimera comprised of the extracellular domain of the p55-R (amino acids 1-168) fused to the transmembrane and intracellular domains of Fas/APO1 (amino acids 153-319) (p55-Fas chimera) (FIGS. 16A and 16B), or by expression of the p55-R (FIGS. 16C and 16D), and of cells that were protected from these cytotoxic effects by their simultaneous transfection with MACHα1 (C360S) (FIGS. 16B and 16D). […] FIG. 17 illustrates the quantification of death induced in 293-EBNA cells by their transfection with p55-Fas chimera or with p55-R, together with an empty vector, a MORT1 deletion mutant lacking the MACH-binding region (MORT1 (92-208)), or MACHα molecules containing a nonfunctional CED3/ICE region. […] Data are from at least two independent experiments and are expressed as in FIGS. 14A-F and 15.

Row | Molecule | binding to human Fas-IC in two-hybrid test [1] | binding to FAS-IC with replacement mutation at position 225 [2] | protection against p55-R-induced cytotoxicity [3]
1 | B1 | binds | prevents binding | 
2 | B2 |  |  | protected

— patent US7799901B2, “Modulators of the function of FAS receptors and other proteins” (Yeda Research and Development Co. Ltd., priority 1995, dated 2010)
